Data taken from IntAct's records for PubMed 23217712.

What was measured:
[1] = target: pcl2_yeast PCL2 (UniProt P25693)
[2] = target: cg13_yeast CLN3 (UniProt P13365)
[3] = target: clg1_yeast CLG1 (UniProt P35190)
Chain of clg1_yeast CLG1 (P35190 whole entry): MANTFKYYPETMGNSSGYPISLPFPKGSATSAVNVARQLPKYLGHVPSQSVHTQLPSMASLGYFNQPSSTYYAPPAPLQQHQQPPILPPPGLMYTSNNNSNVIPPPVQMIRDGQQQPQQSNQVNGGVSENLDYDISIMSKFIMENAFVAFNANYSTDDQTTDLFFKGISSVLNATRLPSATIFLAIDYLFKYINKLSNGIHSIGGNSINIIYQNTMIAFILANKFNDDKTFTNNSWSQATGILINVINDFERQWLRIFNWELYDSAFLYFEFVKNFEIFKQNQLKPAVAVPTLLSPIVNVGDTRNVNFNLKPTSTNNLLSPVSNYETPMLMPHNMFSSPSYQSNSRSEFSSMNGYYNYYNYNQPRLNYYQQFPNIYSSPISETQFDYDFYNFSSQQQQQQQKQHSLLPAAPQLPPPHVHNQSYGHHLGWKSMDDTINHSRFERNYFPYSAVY

Chain of pcl2_yeast PCL2 (P25693 whole entry): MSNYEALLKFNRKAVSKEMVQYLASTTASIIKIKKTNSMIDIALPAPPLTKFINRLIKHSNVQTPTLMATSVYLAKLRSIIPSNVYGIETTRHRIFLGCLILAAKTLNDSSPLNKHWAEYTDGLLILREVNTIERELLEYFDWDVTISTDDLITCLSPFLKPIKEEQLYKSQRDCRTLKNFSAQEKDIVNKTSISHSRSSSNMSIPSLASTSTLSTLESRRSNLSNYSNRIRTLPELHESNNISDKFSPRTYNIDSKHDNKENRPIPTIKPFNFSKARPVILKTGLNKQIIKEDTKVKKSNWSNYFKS
Chain of cg13_yeast CLN3 (P13365 whole entry): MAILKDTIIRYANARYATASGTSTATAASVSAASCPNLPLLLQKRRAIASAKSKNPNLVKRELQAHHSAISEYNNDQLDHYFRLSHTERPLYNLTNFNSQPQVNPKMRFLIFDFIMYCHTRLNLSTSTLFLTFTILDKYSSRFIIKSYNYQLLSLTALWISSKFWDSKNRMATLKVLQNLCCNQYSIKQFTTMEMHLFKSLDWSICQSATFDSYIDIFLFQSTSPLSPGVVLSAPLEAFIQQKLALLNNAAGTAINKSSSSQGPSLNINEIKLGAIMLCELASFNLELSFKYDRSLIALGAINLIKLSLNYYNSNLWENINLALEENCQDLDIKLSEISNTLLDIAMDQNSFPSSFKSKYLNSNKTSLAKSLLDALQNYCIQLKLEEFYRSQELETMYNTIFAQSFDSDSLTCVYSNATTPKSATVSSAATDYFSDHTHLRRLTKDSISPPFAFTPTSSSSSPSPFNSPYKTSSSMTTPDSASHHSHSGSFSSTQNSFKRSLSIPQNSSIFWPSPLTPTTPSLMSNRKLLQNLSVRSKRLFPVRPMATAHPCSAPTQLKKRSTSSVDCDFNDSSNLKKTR

effect of a mutation on the interaction [1] | effect of a mutation on the interaction [2] | effect of a mutation on the interaction [3] | Substance
increasing interaction strength | disrupting interaction strength | increasing interaction strength | Heat shock protein SSA1 (Saccharomyces cerevisiae), P10591 T36A
decreasing interaction strength | – | decreasing interaction strength | Heat shock protein SSA1 (Saccharomyces cerevisiae), P10591 T36E
